# Measured values reported in paper PMC5359911.
# Assays:
# [1] = target: smooth muscle tropomyosin, purified α/β heterodimer of chicken gizzard Tpm1.4 and Tpm2.1 (chicken); test: pull-down; Tpm covalently bound to CNBr-activated Sepharose (40 uL); 200 ug SMTNL1-TMB; 20 mM Tris-HCl pH 7.5, 0.1% beta-mercaptoethanol, 2 h at 4 C; washed with 150 mM NaCl; Coomassie stain, densitometry
# [2] = target: smooth muscle tropomyosin, purified α/β heterodimer of chicken gizzard Tpm1.4 and Tpm2.1 (chicken); test: SPR; BIAcore X100; Tpm amine-coupled to CM5 chip; SMTNL1-TMB 0.12-10 uM injected; 20 mM HEPES pH 7.5, 100 mM KCl, 1 mM DTT, 0.005% Tween-20; 25 C; n = 3
# [3] = target: SMTNL1-TMB, Tpm-binding region of smoothelin-like 1 protein (amino acids 195-459), unphosphorylated (UniProt Q99LM3); test: pull-down; competition, apo-CaM: SMTNL1-TMB premixed with Tpm (equimolar or other molar ratios) for 1 h at 4 C, then added to CaM-Sepharose with 1 mM EDTA
fold recovered against unphosphorylated SMTNL1-TMB [1],Kd [2],percent reduction of SMTNL1-TMB binding to apo-CaM-Sepharose by equimolar Tpm [3],Substance
2 fold,0.32 µM,,SMTNL1-TMB phosphorylated at Ser301 with PKA (from UniProt Q99LM3 195-459) (domain or fragment)
,3 µM,,"SMTNL1-TMB, Tpm-binding region of smoothelin-like 1 protein (amino acids 195-459), unphosphorylated (from UniProt Q99LM3 195-459) (domain or fragment)"
,,60%,"smooth muscle tropomyosin, purified α/β heterodimer of chicken gizzard Tpm1.4 and Tpm2.1 (complex)"
